These results are taken from the Immune Epitope Database (IEDB).

The target of assay [1] is HLA-A*03:01. The assay can be described thus: IEDB peptide-MHC binding, purified MHC/competitive/fluorescence; filed as Kd, often an IC50 or EC50 that approximates it; ≥ and ≤ were set here for values at or beyond the usual limits of such assays.
For assay [2], the target named is HLA-A*02:01. The assay can be described thus: IEDB peptide-MHC binding, purified MHC/competitive/radioactivity; filed as Kd, often an IC50 or EC50 that approximates it; ≥ and ≤ were set here for values at or beyond the usual limits of such assays.
Assay [3] deals with HLA-A*02:03. The description is as above.
Assay [4] addresses HLA-A*02:17. The assay is described as above.
The target in assay [5] is HLA-A*02:06. The description is as above.
Assay [6] deals with HLA-A*68:02. Described as above.
The target in assay [7] is HLA-A*69:01. The assay can be described thus: IEDB peptide-MHC binding, purified MHC/direct/fluorescence; filed as Kd, often an IC50 or EC50 that approximates it; ≥ and ≤ were set here for values at or beyond the usual limits of such assays. The note with it: source organism: dengue virus type 3.
For assay [8], the target named is HLA-A*24:02. Kind of assay: IEDB peptide-MHC binding, purified MHC/competitive/fluorescence; ≥ and ≤ were set here for values at or beyond the usual limits of such assays. The conditions noted are these: source organism: Variola virus.
The target in assay [9] is HLA-B*15:01. The description is as above.
In assay [10] the target is HLA-A*03:01. The description is as above.
Assay [11] has as its target HLA-A*11:01. The assay is described as above. The note with it: source organism: Zaire ebolavirus.
Assay [12] deals with HLA-A*02:02. The assay can be described thus: IEDB peptide-MHC binding, purified MHC/competitive/radioactivity; filed as Kd, often an IC50 or EC50 that approximates it; ≥ and ≤ were set here for values at or beyond the usual limits of such assays. The conditions noted are these: source organism: Trypanosoma cruzi.
The target in assay [13] is HLA-A*01:01. Kind of assay: IEDB peptide-MHC binding, purified MHC/direct/fluorescence; filed as Kd, often an IC50 or EC50 that approximates it; ≥ and ≤ were set here for values at or beyond the usual limits of such assays. The conditions noted are these: source organism: Homo sapiens.
Assay [14] has as its target HLA-A*02:01. Kind of assay: IEDB peptide-MHC binding, purified MHC/competitive/fluorescence; filed as Kd, often an IC50 or EC50 that approximates it; ≥ and ≤ were set here for values at or beyond the usual limits of such assays. The conditions noted are these: source organism: Homo sapiens.
Assay [15] addresses HLA-A*69:01. The assay is described as above. The note with it: source organism: Homo sapiens.
The target in assay [16] is HLA-B*18:01. Described as above. The note with it: source organism: Homo sapiens.
In assay [17] the target is HLA-B*27:03. Described as above. The conditions noted are these: source organism: Homo sapiens.
Assay [18] concerns the target HLA-B*39:01. The assay is described as above. The conditions noted are these: source organism: Homo sapiens.
For assay [19], the target named is HLA-B*46:01. The assay is described as above. The conditions noted are these: source organism: Homo sapiens.
For assay [20], the target named is HLA-B*51:01. Described as above. The conditions noted are these: source organism: Homo sapiens.
Assay [21] addresses HLA-B*57:01. Described as above. The conditions noted are these: source organism: Homo sapiens.
Assay [22] addresses HLA-A*02:01. Kind of assay: IEDB peptide-MHC binding, purified MHC/competitive/fluorescence; ≥ and ≤ were set here for values at or beyond the usual limits of such assays.
Assay [23] concerns the target HLA-B*08:01. Kind of assay: IEDB peptide-MHC binding, purified MHC/competitive/radioactivity; filed as Kd, often an IC50 or EC50 that approximates it; ≥ and ≤ were set here for values at or beyond the usual limits of such assays. The conditions noted are these: source organism: Dengue virus 3 Sri Lanka/1266/2000.
Assay [24] addresses HLA-B*15:01. The assay is described as above. The note with it: source organism: Dengue virus 3 Sri Lanka/1266/2000.
[25] abbreviates: source organism: Dengue virus 3 Sri Lanka/1266/2000.
The mark [26] stands for this setting: source organism: Dengue virus 4 Philippines/H241/1956.
Setting [27] is: source organism: Dengue virus 2 Jamaica/1409/1983.
[28] abbreviates: source organism: Dengue virus 1 Brazil/97-11/1997.
Where [29] appears, read: source organism: Dengue virus 3 China/80-2/1980.
Where [30] appears, read: source organism: Zaire ebolavirus.
The mark [31] stands for this setting: source organism: Dengue virus 1 Singapore/S275/1990.
[32] abbreviates: source organism: Trypanosoma cruzi.
Setting [33] is: source organism: Vaccinia virus.
Where [34] appears, read: source organism: Vaccinia virus Copenhagen.

With GISRNTVKR, in [1] (source organism: Escherichia coli 536), the Kd was no less than 20 µM.

As for LMMILPAALA, the Kd was found to be 0.011 µM in assay [2] (setting [25]), 0.0988 µM in [3] (setting [25]) and 1.84 µM in [4] (setting [25]).

Regarding FLMVLLIPEP, the Kd was 0.0314 µM in assay [2] (setting [26]) and no less than 44.7 µM in assay [4] (setting [26]).

In the case of YLALLAAFKV, the equilibrium dissociation constant (Kd) was found to be 0.00162 µM in assay [2] (setting [27]), 0.015 µM in [3] (setting [27]), 0.00962 µM in assay [5] (setting [27]) and 0.0623 µM in assay [4] (setting [27]).

As for YVSAIAQAKA, the dissociation constant (Kd) in assay [6] (setting [28]) was 0.022 µM.

For the sequence ILTDGPERV, the dissociation constant Kd in assay [7] was no less than 20 µM; in assay [3] (source organism: Dengue virus 3 Martinique/1243/1999) it was 0.13 µM; in assay [4] (setting [29]), 8.97 µM.

In [1] (source organism: Burkholderia vietnamiensis G4), KMARAGLGK yielded a Kd of 0.0202 µM.

For the sequence AQREIFSAW, the half-inhibitory concentration (IC50) in assay [8] is 0.0386 µM; in assay [9] (source organism: Variola virus), 6.52 µM.

Take NTTGKLIWK: the IC50 came to 24.7 µM in assay [10] (setting [30]) and 1.04 µM in assay [11].

In the case of IIFILLMLV, the dissociation constant (Kd) in assay [2] (setting [31]) is 0.0437 µM; in assay [3] (setting [28]) it was 0.217 µM; in assay [5] (setting [28]), 1.17 µM; in assay [4] (setting [31]), 0.328 µM.

Consider WMTTEDMLAV, for which the Kd turned out to be 0.0824 µM in assay [2] (setting [27]), 0.0204 µM in [3] (setting [27]), 0.0251 µM in assay [5] (setting [27]) and 2.51 µM in [4] (setting [27]).

As for DLYEEEMREL, the equilibrium dissociation constant (Kd) in [6] (source organism: Homo sapiens) is 13.5 µM.

Take FLHKRFTLV: the equilibrium dissociation constant (Kd) in [2] (setting [32]) was determined as 0.000614 µM; in [12] it was 0.000256 µM; in [3] (setting [32]), 0.000116 µM; in assay [5] (setting [32]), 0.00137 µM; in assay [6] (setting [32]), 1.31 µM.

Regarding ILIGVIITWI, the Kd in [2] (setting [27]) was determined as 0.0915 µM; in assay [4] (setting [27]), 17.6 µM.

VTSSVSSGY: the dissociation constant Kd in [13] is 0.0054 µM; in assay [14] it was no less than 20 µM; in assay [15] it was no less than 20 µM; in [16], no less than 20 µM; in assay [17] it was no less than 20 µM; in assay [18], no less than 20 µM. Besides, the Kd in [19], in [20] and in assay [21] was no less than 20 µM throughout.

Regarding KLSYRNKPS, the results for the 50% inhibitory concentration (IC50) in assay [22] (setting [33]) and in assay [10] (setting [33]) were no less than 196 µM and no less than 282 µM, respectively.

Consider GAMVEYVSA, for which the IC50 in assay [22] (setting [34]) was found to be 33.4 µM; in [9] (setting [34]), 25.5 µM.

Turning to YQLWTALVSL, the dissociation constant Kd in [5] (setting [25]) worked out at 0.00587 µM; in [4] (setting [29]), 0.0914 µM; in assay [23], 0.974 µM; in assay [24], 0.191 µM.

As for GMFRTVGQL, in assay [6] (source organism: Homo sapiens), the equilibrium dissociation constant (Kd) is no less than 60 µM.

On to TVAANEMGL, for which, in assay [6] (setting [28]), the Kd was 0.0668 µM.

For the sequence KAALSSLAK, the IC50 in assay [10] (setting [30]) was 5.42 µM; in assay [11], 0.483 µM; in assay [9] (setting [30]) it was no less than 110 µM.

A word on the Kd: it is the concentration at which binding is half-saturated. Usually IC50 stands for the concentration at which inhibition is half-maximal. A lower IC50 goes with inhibition by little substance.
